Assay results as given in US12068729.
pKd: −log10 of the molar value.

Assays:
[1] = molecular target: human activated Factor XII (FXIIa), Enzyme Research Laboratories Cat #1212a (human); test: SPR Biacore, mAb captured by anti-hFc, 25 C
[2] = molecular target: human Factor XII (FXII), Enzyme Research Laboratories Cat #1212 (human); test: SPR Biacore, mAb captured by anti-hFc, 25 C
[3] = molecular target: human activated Factor XII (FXIIa), Enzyme Research Laboratories Cat #1212a (human); test: SPR Biacore, mAb captured by anti-hFc, 37 C
[4] = molecular target: human Factor XII (FXII), Enzyme Research Laboratories Cat #1212 (human); test: SPR Biacore, mAb captured by anti-hFc, 37 C

| 100 nM Ag Bound (RU) [1] | pKd [1] | koff [1] | kon [1] | t½ [1] | 100 nM Ag Bound (RU) [2] | 100 nM Ag Bound (RU) [3] | pKd [3] | koff [3] | kon [3] | t½ [3] | 100 nM Ag Bound (RU) [4] | pKd [2] | koff [2] | kon [2] | t½ [2] | pKd [4] | koff [4] | kon [4] | t½ [4] | Substance |
| --- | --- | --- | --- | --- | --- | --- | --- | --- | --- | --- | --- | --- | --- | --- | --- | --- | --- | --- | --- | --- |
| 297 RU | 8.60 | 0.000996 s⁻¹ | 392000 M⁻¹ s⁻¹ | 11.6 min | 9.5 RU | 312 RU | 8.08 | 0.00515 s⁻¹ | 624000 M⁻¹ s⁻¹ | 2 min | 9.9 RU |  |  |  |  |  |  |  |  | Comparator 1, a monoclonal antibody against human FXII/FXIIa having VH/VL sequences of antibody 3F7 according to U.S. Pat. No. 9,518,127 (CSL Behring GmbH) |
| 197 RU | 8.53 | 0.00451 s⁻¹ | 1.54e+06 M⁻¹ s⁻¹ | 2.6 min | 86.1 RU | 187 RU | 8.56 | 0.02 s⁻¹ | 7.25e+06 M⁻¹ s⁻¹ | 1 min | 83.8 RU | 7.43 | 0.00247 s⁻¹ | 66100 M⁻¹ s⁻¹ | 4.7 min | 7.34 | 0.0542 s⁻¹ | 1.2e+06 M⁻¹ s⁻¹ | 0 h | Comparator 2, a human monoclonal antibody against human FXII having VH/VL sequences of antibody 15H8 according to U.S. Pat. No. 9,574,013 (Vanderbilt Univ./Aronora) |
| 0.1 RU |  |  |  |  | 10 RU | -2.7 RU |  |  |  |  | 10.3 RU |  |  |  |  |  |  |  |  | Isotype control (antibody) |
